Columns and labels:
[1] = target: chicken PHT1 (purified, wild type) (chicken)
[2] = target: T1, chicken PHT1 L12A/L13A (purified, deglycosylated, cryo-EM sample) (Gallus gallus (chicken), UniProt A0A8V0ZFZ8;A0A8V0Z8V0, point mutant); assay: cryo-EM structure; PHT1 L12A/L13A with two-fold molar excess of Sb27, EndoH, gel filtration; 10 mM MOPS pH 7.0, 100 mM NaCl, 0.01% DDM/0.002% CHS; conditions: both partners purified
T1 construct: chicken PHT1 (SLC15A4), full length, 581 residues, with L12A and L13A; Residues 19-569 modelled in the map; also called plasma membrane mutant of PHT1; source: Expi293F GnT1-, transiently transfected, Strep-Tactin purified, treated with EndoH, gel filtration

[3] = target: T1, chicken PHT1 L12A/L13A (purified, …); assay: thermal shift (nanoDSF); PHT1 alone against PHT1-Sb27 at 0.4 mg/mL in 50 mM HEPES pH 7.5, 100 mM NaCl, 0.02% DDM/0.004% CHS; conditions: both partners purified

Sequence of chicken PHT1 (purified, wild type) (chicken) (chain, as listed by the source): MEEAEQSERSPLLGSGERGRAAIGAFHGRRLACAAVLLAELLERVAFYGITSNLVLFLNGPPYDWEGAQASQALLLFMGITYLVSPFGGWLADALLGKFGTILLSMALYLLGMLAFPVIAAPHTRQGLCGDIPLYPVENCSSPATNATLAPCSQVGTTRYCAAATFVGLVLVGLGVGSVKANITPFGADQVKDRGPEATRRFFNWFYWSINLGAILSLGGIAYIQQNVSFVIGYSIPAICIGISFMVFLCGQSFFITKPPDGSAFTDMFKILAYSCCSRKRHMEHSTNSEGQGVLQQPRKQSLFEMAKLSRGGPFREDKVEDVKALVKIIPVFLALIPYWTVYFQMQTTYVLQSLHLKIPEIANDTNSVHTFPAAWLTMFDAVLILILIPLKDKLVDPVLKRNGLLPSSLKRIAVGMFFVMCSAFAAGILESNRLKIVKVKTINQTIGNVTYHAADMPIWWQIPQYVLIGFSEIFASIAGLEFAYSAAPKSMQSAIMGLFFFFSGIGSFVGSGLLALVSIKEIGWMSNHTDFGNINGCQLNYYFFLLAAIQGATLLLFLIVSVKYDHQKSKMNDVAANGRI

Binder | binding result [1] | stoichiometry N [2] | increase of the melting temperature of PHT1 [3] [degrees]
155 (VHH) VHH: QVQLVESGGGLVQAGGSLRLSCAAGGFPVKTSWMRWYRQAPGKEREWVAAINSTGDWTEYADSVKGRFTISRDNAKNTVYLQMNSLKPEDTAVYYCNVKDYGVQTYYYDYWGQGTQVTVSA | binds | – | –
sybody 27 (VHH, synthetic nanobody selected from the sybody libraries; Expressed from the pSBinit plasmid; also called Sb27; Sb27a; source: E. coli MC1061 F-, periplasm, purified (Ni-NTA, gel filtration)) VHH: QVQLVESGGGSVQAGGSLRLSCAASGDIETIWYLGWFRQAPGKEREGVAALSTVTGSTYYADSVKGRFTVSLDNAKNTVYLQMNSLKPEDTALYYCAAAYTGWMAPLWQWVYSYWGQGTQVTVSA | – | 2 | 6

— PMC10502012, “Molecular basis of TASL recruitment by the peptide/histidine transporter 1, PHT1” (Nature Communications, 2023)
